# Measured values taken from paper PMC4595836.
# Molecular target: T1, ScbR (Streptomyces coelicolor A3(2) M145) (UniProt Q7AKF1)
# T1 sequence: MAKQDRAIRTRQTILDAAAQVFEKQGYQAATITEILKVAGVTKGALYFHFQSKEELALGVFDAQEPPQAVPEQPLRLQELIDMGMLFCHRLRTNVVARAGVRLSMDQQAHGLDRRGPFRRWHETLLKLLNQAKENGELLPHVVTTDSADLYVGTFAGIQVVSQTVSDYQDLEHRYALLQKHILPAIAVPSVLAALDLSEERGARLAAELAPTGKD
# Test: DNase I footprinting
# Conditions: EMSA: 6-12 ng probe, ScbR 0.21-3.77 uM, ScbR2 0.207-4.15 uM; buffer, salt, pH and temperature not in material (as described in earlier work)
sequence,measurement,value
CCCTCATGTCCGAACAGCTCGACACCGCCGTCGAAACAGACGGCAAGGGCGACCTCGCCACGTTGTTCAACGGTGGGGACACCTTCTCCCATTGAAAACCGGCGAGGAGGTTTGTTAATCCCATGTTCCCTGGACCGACCTGTTTCGAGATCGAGGAGGACAGTTGAGCGCCACTTCTGCCCCCGCACCCCAGCACGGCATGACCTGGCTGGGAGCCATCGTGGAGGACGGCTTCACGGAGACGTTGCAGGACGGGCTCAG (double strand) [sco6268 promoter footprint probe],binding,binds
